Reference: patent US20220073608A1 (JIANGSU HUAIYU PHARMACEUTICAL, published 2022)
Where a chain is given by its changes, count along the chain named.

B1: 32C8F10 (antibody, V domains shown)
VH: EVQLQQSGAELVRPGASVKLSCTASGFNIKDEYIHWVKQRPEQGLEWIGWIDPANGHTEYASRFQAKATITADTSSNTAYLQLSSLTSEDTAVYYCTTGDYDGFAYWGQGTLVTVST
VL: QIVLTQSPAIMSASPGEKVTISCSARSSVSYMYWYQQKPGSSPKPWIYRTSNLASGVPARFSGSGSGTSYSLTISSMEAEDAATYYCQHYHTYPYTFGGGTKLEIK
notes: Mouse monoclonal antibody purified from hybridoma supernatant on protein A
B2: 31C11G2 (antibody, V domains shown)
VH: B1 VH with A105V
VL: B1 VL with S22F
notes: as for B1
B3: 31G10C5 (antibody, V domains shown)
VH: B1 VH with E32D, T58I, R63N, A105T
VL: B1 VL
notes: as for B1

Tests used:
[1] = molecular target: T1, biotinylated hSEMA4D ECD-His (human, UniProt Q92854 22-734, biotinylated with Biotin-X-X-NHS at a molar ratio of 8:1; sites not stated); assay: FACS, blocking of biotinylated hSEMA4D ECD-His binding to 293F hPlexin B1 cells; Ab 333 nM
T1 construct: also called biotinylated immunogen; not shown: His tag of the pCP vector
T1 sequence: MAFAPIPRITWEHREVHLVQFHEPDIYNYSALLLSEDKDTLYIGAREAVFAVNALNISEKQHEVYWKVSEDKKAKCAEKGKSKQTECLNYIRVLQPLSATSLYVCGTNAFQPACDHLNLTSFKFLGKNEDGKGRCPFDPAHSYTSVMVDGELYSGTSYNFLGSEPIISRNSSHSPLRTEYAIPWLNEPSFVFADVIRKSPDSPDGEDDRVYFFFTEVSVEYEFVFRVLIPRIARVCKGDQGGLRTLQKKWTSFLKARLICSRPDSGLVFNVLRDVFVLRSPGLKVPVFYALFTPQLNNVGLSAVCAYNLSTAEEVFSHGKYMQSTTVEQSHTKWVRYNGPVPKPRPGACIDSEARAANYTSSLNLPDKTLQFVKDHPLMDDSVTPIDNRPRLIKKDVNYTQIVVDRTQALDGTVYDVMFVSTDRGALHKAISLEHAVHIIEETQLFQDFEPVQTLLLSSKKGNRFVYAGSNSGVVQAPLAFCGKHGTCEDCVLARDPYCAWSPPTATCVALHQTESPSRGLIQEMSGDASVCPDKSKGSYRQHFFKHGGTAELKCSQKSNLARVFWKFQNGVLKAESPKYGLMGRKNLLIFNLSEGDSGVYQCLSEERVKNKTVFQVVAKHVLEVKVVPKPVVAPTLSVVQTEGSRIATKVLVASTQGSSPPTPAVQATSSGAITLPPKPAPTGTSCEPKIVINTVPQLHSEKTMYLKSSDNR
Description: (§1) The medium was aspirated, the cells were washed once with PBS buffer (purchased from Invitrogen), and then treated with cell dissociation fluid (TrypLE™ Express Enzyme, purchased from Life technology), and the cells were collected. After the cells counted, the cells were washed once with PBS phosphate buffer, and diluted to 1×10⁶ cells per milliliter, and added to the 96-well FACS reaction plate as 100 μL per well. 2% (w/w) fetal calf serum was added to PBS phosphate buffer as FACS buffer, with which the cells were washed once by centrifugation at 2000 rpm 4° C. Meanwhile, the purified leading antibody and biotinylated hSEMA4D ECD-His were mixed and incubated on ice for 30 minutes. Then 100 μL of the mixture was added to each well and the plate was incubated on ice for 1 hour. […] Cells were washed 2 times by centrifugation with FACS buffer. The cells were suspended with 200 μL of FACS buffer, and FACS (FACS Verse, purchased from BD) was used to detect and analyze the results. The results are shown in FIGS. 11A-11B and Tables 20-21.

[2] = molecular target: T1, biotinylated hSEMA4D ECD-His; assay: FACS, blocking of biotinylated hSEMA4D ECD-His binding to 293F hPlexin B1 cells; Ab 13.3 nM
Description: as §1

[3] = molecular target: T1, biotinylated hSEMA4D ECD-His; assay: FACS, blocking of biotinylated hSEMA4D ECD-His binding to 293F hPlexin B1 cells; Ab 66.7 nM
Description: as §1

[4] = molecular target: T1, biotinylated hSEMA4D ECD-His; assay: FACS, blocking of biotinylated hSEMA4D ECD-His binding to 293F hPlexin B1 cells; Ab 0.534 nM
Description: as §1

Binder	MFI (residual ligand binding) [1]	MFI (residual ligand binding) [2]	MFI (residual ligand binding) [3]	MFI (residual ligand binding) [4]
B1	85.1	204	55.5	420
B2	50.8	266	54.2	513
B3	45.4	209	54.2	427
